Measured values published in publication PMC5159555 (Nucleic Acids Research, 2016).
Like-named read-outs stand apart in the source and are kept apart here. Values belong to the binder of their own block, whether it stands above or below them.

Experiments:
[1] = target: T1, FANCI-FANCD2 (I-D) complex (chicken, UniProt B0I564 1-1338; Q68Y81 1-1439); experiment: pull-down
[2] = target: T2, His6-tagged chicken FANCI (chicken, UniProt B0I564 1-1338); experiment: pull-down
T2 sequence (looked up): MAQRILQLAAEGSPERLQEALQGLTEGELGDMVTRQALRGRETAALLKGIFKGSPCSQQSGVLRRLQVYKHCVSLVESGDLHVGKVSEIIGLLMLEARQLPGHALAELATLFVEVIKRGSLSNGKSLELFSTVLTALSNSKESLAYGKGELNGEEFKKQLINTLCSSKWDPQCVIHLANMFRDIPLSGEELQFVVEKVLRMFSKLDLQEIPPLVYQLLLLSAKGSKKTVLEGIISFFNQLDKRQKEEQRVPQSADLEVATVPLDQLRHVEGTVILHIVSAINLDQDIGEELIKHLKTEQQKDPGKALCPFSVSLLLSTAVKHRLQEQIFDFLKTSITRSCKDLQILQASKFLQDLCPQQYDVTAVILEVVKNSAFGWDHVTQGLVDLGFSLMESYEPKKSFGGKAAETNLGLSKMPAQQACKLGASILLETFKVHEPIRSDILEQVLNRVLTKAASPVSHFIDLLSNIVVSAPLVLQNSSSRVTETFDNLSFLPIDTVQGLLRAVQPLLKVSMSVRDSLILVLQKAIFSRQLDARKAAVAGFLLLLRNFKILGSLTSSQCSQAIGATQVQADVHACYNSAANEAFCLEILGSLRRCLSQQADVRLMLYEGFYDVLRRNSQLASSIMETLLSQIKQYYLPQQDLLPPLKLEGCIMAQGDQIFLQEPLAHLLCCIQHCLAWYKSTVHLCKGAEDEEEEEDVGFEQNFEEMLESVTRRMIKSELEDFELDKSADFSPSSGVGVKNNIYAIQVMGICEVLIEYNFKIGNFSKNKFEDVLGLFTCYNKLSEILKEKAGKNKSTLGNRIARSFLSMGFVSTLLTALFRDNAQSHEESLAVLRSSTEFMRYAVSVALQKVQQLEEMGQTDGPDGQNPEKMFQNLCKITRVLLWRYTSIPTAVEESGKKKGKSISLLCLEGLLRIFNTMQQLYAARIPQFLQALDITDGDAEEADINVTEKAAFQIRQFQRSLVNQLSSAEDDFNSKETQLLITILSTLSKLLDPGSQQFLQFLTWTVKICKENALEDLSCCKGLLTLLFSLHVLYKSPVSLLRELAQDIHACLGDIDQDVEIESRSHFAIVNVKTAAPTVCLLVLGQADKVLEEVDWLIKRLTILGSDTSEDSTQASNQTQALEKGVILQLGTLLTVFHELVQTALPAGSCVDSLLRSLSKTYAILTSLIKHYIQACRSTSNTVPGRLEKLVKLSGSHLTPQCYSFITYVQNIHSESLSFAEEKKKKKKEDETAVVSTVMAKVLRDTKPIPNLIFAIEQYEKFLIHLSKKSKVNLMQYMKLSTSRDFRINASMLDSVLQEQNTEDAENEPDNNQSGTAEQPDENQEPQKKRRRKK

[3] = target: His6-tagged chicken FANCD2 (chicken, UniProt Q68Y81 1-1439); experiment: pull-down
Sequence of His6-tagged chicken FANCD2 (Q68Y81 whole entry): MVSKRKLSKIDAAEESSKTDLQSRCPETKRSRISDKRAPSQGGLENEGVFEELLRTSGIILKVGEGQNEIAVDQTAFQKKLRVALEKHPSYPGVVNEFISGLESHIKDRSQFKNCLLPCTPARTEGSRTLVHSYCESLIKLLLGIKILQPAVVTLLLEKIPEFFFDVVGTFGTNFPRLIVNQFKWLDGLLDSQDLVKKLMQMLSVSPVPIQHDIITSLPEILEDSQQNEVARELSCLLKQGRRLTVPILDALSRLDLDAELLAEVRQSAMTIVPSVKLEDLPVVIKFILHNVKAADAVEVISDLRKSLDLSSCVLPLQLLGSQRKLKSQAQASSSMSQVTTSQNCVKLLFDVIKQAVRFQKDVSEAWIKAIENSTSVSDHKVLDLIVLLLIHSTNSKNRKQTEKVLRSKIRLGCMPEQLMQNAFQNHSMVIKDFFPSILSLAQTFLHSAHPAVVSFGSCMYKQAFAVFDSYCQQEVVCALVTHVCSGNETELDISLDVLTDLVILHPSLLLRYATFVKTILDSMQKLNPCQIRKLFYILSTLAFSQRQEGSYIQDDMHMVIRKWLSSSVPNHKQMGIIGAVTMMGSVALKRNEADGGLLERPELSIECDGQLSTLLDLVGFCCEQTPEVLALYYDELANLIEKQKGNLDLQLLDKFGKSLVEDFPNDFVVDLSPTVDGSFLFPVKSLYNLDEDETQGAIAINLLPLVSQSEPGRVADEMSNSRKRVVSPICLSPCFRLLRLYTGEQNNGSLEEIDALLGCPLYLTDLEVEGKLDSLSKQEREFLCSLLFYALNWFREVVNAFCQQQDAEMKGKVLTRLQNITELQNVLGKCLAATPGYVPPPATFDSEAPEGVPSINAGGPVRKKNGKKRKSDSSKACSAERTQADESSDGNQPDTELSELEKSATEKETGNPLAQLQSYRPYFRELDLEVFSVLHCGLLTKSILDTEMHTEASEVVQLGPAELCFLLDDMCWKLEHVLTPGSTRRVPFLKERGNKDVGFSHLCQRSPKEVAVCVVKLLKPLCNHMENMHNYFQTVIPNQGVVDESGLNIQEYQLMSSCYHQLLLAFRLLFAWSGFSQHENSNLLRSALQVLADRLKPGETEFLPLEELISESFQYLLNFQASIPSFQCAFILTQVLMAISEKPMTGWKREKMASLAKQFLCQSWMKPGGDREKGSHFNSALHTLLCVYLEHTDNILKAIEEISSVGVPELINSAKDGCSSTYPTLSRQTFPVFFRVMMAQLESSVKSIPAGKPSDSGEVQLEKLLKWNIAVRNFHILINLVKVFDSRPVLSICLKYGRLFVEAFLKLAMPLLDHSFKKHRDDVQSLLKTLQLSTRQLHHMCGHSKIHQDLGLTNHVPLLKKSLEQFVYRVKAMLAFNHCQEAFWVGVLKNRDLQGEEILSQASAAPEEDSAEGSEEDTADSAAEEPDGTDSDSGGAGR

[4] = target: His6-tagged FANCD2 complexed with FANCI (chicken, UniProt Q68Y81 1-1439; B0I564 1-1338); experiment: pull-down
Sequence of His6-tagged FANCD2 complexed with FANCI (Q68Y81 whole entry, one chain of several): as the sequence (Q68Y81 whole entry) above

[5] = target: T1, FANCI-FANCD2 (I-D) complex; experiment: pull-down; remark: listed apart in the source
chicken FANCD2 = chicken FANCD2 (chicken, UniProt Q68Y81 1-1439); experiment: SEC
Sequence of chicken FANCD2 (Q68Y81 whole entry): as above

T1 sequence (Q68Y81 whole entry, one chain of several): as the sequence (Q68Y81 whole entry) above

B2: His6-tagged chicken RAD51 (natural protein, UniProt P37383 1-339, looked up)
chain: MAMQVQFEASTDTSAEEESFGPEPISRLEQCGINANDVKKLEEAGYHTVESVAHAPKKELLNIKGISEAKADKILAEAAKLVPMGFTTATEFHQRRSEIIQITTGSKELDKLLQGGIETGSITELFGEFRTGKTQLCHTLAVTCQLPIDRGGGEGKAMYIDTEGTFRPERLLAVAERYGLSGSDVLDNVAYARGFNTDHQTQLLYQASAMMAESRYALLIVDSATALYRTDYSGRGELSARQMHLARFLRMLLRLADEFGVAVVITNQVVAQVDGAAMFAADPKKPIGGNIIAHASTTRLYLRKGRGETRICKIYDSPCLPEAEAMFAINADGVGDAKE
binding result [5]: binds

B4: chicken FANCI (natural protein, UniProt B0I564 1-1338, looked up)
chain: MAQRILQLAAEGSPERLQEALQGLTEGELGDMVTRQALRGRETAALLKGIFKGSPCSQQSGVLRRLQVYKHCVSLVESGDLHVGKVSEIIGLLMLEARQLPGHALAELATLFVEVIKRGSLSNGKSLELFSTVLTALSNSKESLAYGKGELNGEEFKKQLINTLCSSKWDPQCVIHLANMFRDIPLSGEELQFVVEKVLRMFSKLDLQEIPPLVYQLLLLSAKGSKKTVLEGIISFFNQLDKRQKEEQRVPQSADLEVATVPLDQLRHVEGTVILHIVSAINLDQDIGEELIKHLKTEQQKDPGKALCPFSVSLLLSTAVKHRLQEQIFDFLKTSITRSCKDLQILQASKFLQDLCPQQYDVTAVILEVVKNSAFGWDHVTQGLVDLGFSLMESYEPKKSFGGKAAETNLGLSKMPAQQACKLGASILLETFKVHEPIRSDILEQVLNRVLTKAASPVSHFIDLLSNIVVSAPLVLQNSSSRVTETFDNLSFLPIDTVQGLLRAVQPLLKVSMSVRDSLILVLQKAIFSRQLDARKAAVAGFLLLLRNFKILGSLTSSQCSQAIGATQVQADVHACYNSAANEAFCLEILGSLRRCLSQQADVRLMLYEGFYDVLRRNSQLASSIMETLLSQIKQYYLPQQDLLPPLKLEGCIMAQGDQIFLQEPLAHLLCCIQHCLAWYKSTVHLCKGAEDEEEEEDVGFEQNFEEMLESVTRRMIKSELEDFELDKSADFSPSSGVGVKNNIYAIQVMGICEVLIEYNFKIGNFSKNKFEDVLGLFTCYNKLSEILKEKAGKNKSTLGNRIARSFLSMGFVSTLLTALFRDNAQSHEESLAVLRSSTEFMRYAVSVALQKVQQLEEMGQTDGPDGQNPEKMFQNLCKITRVLLWRYTSIPTAVEESGKKKGKSISLLCLEGLLRIFNTMQQLYAARIPQFLQALDITDGDAEEADINVTEKAAFQIRQFQRSLVNQLSSAEDDFNSKETQLLITILSTLSKLLDPGSQQFLQFLTWTVKICKENALEDLSCCKGLLTLLFSLHVLYKSPVSLLRELAQDIHACLGDIDQDVEIESRSHFAIVNVKTAAPTVCLLVLGQADKVLEEVDWLIKRLTILGSDTSEDSTQASNQTQALEKGVILQLGTLLTVFHELVQTALPAGSCVDSLLRSLSKTYAILTSLIKHYIQACRSTSNTVPGRLEKLVKLSGSHLTPQCYSFITYVQNIHSESLSFAEEKKKKKKEDETAVVSTVMAKVLRDTKPIPNLIFAIEQYEKFLIHLSKKSKVNLMQYMKLSTSRDFRINASMLDSVLQEQNTEDAENEPDNNQSGTAEQPDENQEPQKKRRRKK
binding result (chicken FANCD2): binds

Further lines, results first:

binding result [1]: binds
binding result [2]: binds
binding result [3]: binds
binding result [4]: binds
B1: chicken RAD51 (natural protein, UniProt P37383 1-339, looked up)
chain: MAMQVQFEASTDTSAEEESFGPEPISRLEQCGINANDVKKLEEAGYHTVESVAHAPKKELLNIKGISEAKADKILAEAAKLVPMGFTTATEFHQRRSEIIQITTGSKELDKLLQGGIETGSITELFGEFRTGKTQLCHTLAVTCQLPIDRGGGEGKAMYIDTEGTFRPERLLAVAERYGLSGSDVLDNVAYARGFNTDHQTQLLYQASAMMAESRYALLIVDSATALYRTDYSGRGELSARQMHLARFLRMLLRLADEFGVAVVITNQVVAQVDGAAMFAADPKKPIGGNIIAHASTTRLYLRKGRGETRICKIYDSPCLPEAEAMFAINADGVGDAKE

binding result [5]: binds
B3: His6-tagged chicken RAD51 F86E mutant (natural protein, UniProt P37383 1-339, looked up)
chain: MAMQVQFEASTDTSAEEESFGPEPISRLEQCGINANDVKKLEEAGYHTVESVAHAPKKELLNIKGISEAKADKILAEAAKLVPMGETTATEFHQRRSEIIQITTGSKELDKLLQGGIETGSITELFGEFRTGKTQLCHTLAVTCQLPIDRGGGEGKAMYIDTEGTFRPERLLAVAERYGLSGSDVLDNVAYARGFNTDHQTQLLYQASAMMAESRYALLIVDSATALYRTDYSGRGELSARQMHLARFLRMLLRLADEFGVAVVITNQVVAQVDGAAMFAADPKKPIGGNIIAHASTTRLYLRKGRGETRICKIYDSPCLPEAEAMFAINADGVGDAKE
